Test [1] concerns the target T1, human CD4 on 293T cells stably expressing CD4 (CD4-293T) (human, UniProt P01730 26-458).
T1 construct: whole, on cells; also called 293T-CD4 cells; hCD4 (FACS)
The experiment in a line: FACS, humanized antibody on CD4-293T cells. How it is done: (§1) Cell binding analysis of anti-CD4 antibody was performed using 293T cell line stably expressing CD4 (CD4-293T). 2*10^5 CD4-293T cells were added to each well of 96-well plate and incubated with the indicated hybridoma supernatant or a serial concentrations of purified antibody (starting from 20 μg/mL) at 4° C. for 1 h. After the cells were washed three times with FACS buffer, the secondary antibody (PE Goat anti-mouse: 1:200) was added to the cells at 100 μl/well, and incubated at 4° C. for 40 min. Cells were washed three times with FACS buffer and analyzed by FACS Array. The binding EC50 of purified antibody was calculated with GraphPad Prism 5.
(§2) DNA encoding humanized 2B6, 29B7 and MT412 antibody light chain and heavy chain was synthesized and cloned to the expression vector pcDNA3.1 (Invitrogen, Cat. No: V-790). Freestyle 293 cells (200 mL at 10^6/mL) were transfected with 100 µg of each of the humanized heavy and light chain expression plasmids and cultured for 6 days at 37° C. The humanized antibody in the supernatant was then purified with Protein-A column (GE healthcare). Binding of the chimeric antibody with CD4 was measured by ELISA (FIG. 6, Table 7) and FACS (FIG. 7, Table 8), and the methods used were similar to those described above in Example 2.
In general terms: In flow cytometry, cells or beads pass a laser one at a time.

Test [2] addresses T2, extracellular domain of hCD4 fused with human Fc tag (hCD4-hFc) (human, UniProt P01730 26-396).
T2 construct: extracellular domain; also called human CD4-hFc; hCD4 (ELISA); not shown: human Fc tag
The experiment in a line: ELISA, humanized antibody on hCD4, method similar to Example 2. How it is done: Example 2: Selection of the Anti-hCD4 Hybridoma Antibodies Based on Binding and Gene Reporter Assays The binding interaction between hybridoma antibody and human CD4-hFc was measured by ELISA. 96-well plates (Costar, Cat. No:9018) were coated with 100 μL of 2 μg/ml CD4-hFc (CrownBio) in PBS buffer (Hyclone, Cat. No: SH30256.01B) overnight at 4° C. The wells were aspirated and non-specific binding sites were blocked by adding 200 μL of blocking buffer containing 1% (w/v) of bovine serum albumin (BSA, Roche, Cat. No: 738328) and incubating for 1 hour at 37° C. After the plates are washed three times with PBS buffer containing 0.05% (v/v) Tween™ 20 (Sigma, Cat. No: P1379), 100 μL hybridoma supernatant or a serial concentrations of purified antibody (starting from 20 μg/mL) diluted in blocking buffer was added to each well and incubated at room temperature for 1 hour. The plates were washed and incubated with 100 μL/well of Goat anti-Mouse IgG (Thermo, Cat. No:31432) in blocking buffer for 60 min. After the plates were washed, 100 μL/well of substrate solution TMB (eBioscience, Cat. No:00-4201-56) was added, and the plates were incubated for 2 min at room temperature before 100 μL/well of 2N H_2SO_4 was added to stop the reaction. The colorimetric signals were monitored at 450 nm using a SpectraMax Plus microplate reader (Molecular Devices). For the purified antibody, data were analyzed using GraphPad Prism 5 to calculated the $EC50$.
as §2
On the technique in general: An ELISA detects its analyte on a solid surface through an enzyme-linked reagent.

For test [3], the target named is T2, extracellular domain of hCD4 fused with …. The experiment in a line: ELISA on human CD4, OD450; table under the graph (unit from the graph's axis); Table 7 of the text gives this value to MT412. How it is done: (§3) Example 2: Selection of the Anti-hCD4 Hybridoma Antibodies Based on Binding and Gene Reporter Assays The binding interaction between hybridoma antibody and human CD4-hFc was measured by ELISA. 96-well plates (Costar, Cat. No:9018) were coated with 100 μL of 2 μg/ml CD4-hFc (CrownBio) in PBS buffer (Hyclone, Cat. No: SH30256.01B) overnight at 4° C. The wells were aspirated and non-specific binding sites were blocked by adding 200 μL of blocking buffer containing 1% (w/v) of bovine serum albumin (BSA, Roche, Cat. No: 738328) and incubating for 1 hour at 37° C. […] The colorimetric signals were monitored at 450 nm using a SpectraMax Plus microplate reader (Molecular Devices). For the purified antibody, data were analyzed using GraphPad Prism 5 to calculated the $EC50$.
(§4) DNA encoding humanized 2B6, 29B7 and MT412 antibody light chain and heavy chain was synthesized and cloned to the expression vector pcDNA3.1 (Invitrogen, Cat. No: V-790). […] Binding of the chimeric antibody with CD4 was measured by ELISA (FIG. 6, Table 7) and FACS (FIG. 7, Table 8), and the methods used were similar to those described above in Example 2.

In test [4] the target is T1, human CD4 on 293T cells stably …. The experiment in a line: FACS on 293T cells expressing human CD4, MFI; table under the graph (unit from the graph's axis); Table 8 of the text gives this value to MT412. How it is done: as §1, §2
Test [5] deals with T3, extracellular domain of hCD4 fused with a histidine tag (hCD4-HisTag) (human, UniProt P01730 26-396).
T3 construct: extracellular domain; also called human CD4-HisTag; not shown: histidine tag
The experiment in a line: Biacore T200 SPR, antibody captured on Protein A, CD4-HisTag analyte, 1:1 fit, 25 C. How it is done: The binding kinetics between CD4 and CD4 antibodies were measured by Biacore™ analysis, which was performed at 25° C. on a Biacore™ T200 instrument. Protein A (GE, Cat. No:29139131-AA) was diluted with 10 mM pH 5.0 sodium acetate and immobilized onto reference and experiment flow cells of a CM5 biosensor chip to around 15000 RU using an amine coupling kit (GE, BR10050). In the beginning of each cycle, diluted test antibody (1.5 µg/mL) was injected over experiment flow cell for 1 minute to be captured. CD4-HisTag analyte series were prepared by diluting the stocks with running buffer to 100 nM followed by 2-fold serial dilution in the same buffer down to 0.78 nM. Analytes were injected in series over the reference and experiment flow cells for 3 minutes at a flow rate of 30
μL/minute. Running buffer (PBS with 0.05% P20) was allowed to flow over for 10 minutes at a flow rate of 30 μL/minute. At the end of each cycle, the biosensor surface was regenerated with 3-minute injection of 10 mM pH 2.0 Glycine-HCl buffer at a flow rate of 10 μL/minute. For each analyte sample injection (i.e., each cycle), binding responses obtained from the experimental biosensor surface were double referenced by subtracting simultaneously recorded responses from the reference surface followed by additional subtraction of responses from a single referenced running buffer sample. The association and dissociation rate constants (ka and kd) were determined simultaneously by fitting double-referenced sensorgrams of the entire titration series to Langmuir model (1:1) using Biaevaluation software. The dissociation constant, KD, was calculated from the determined rate constants by the equation KD=kd/ka.
(In SPR one partner is held on a chip, and binding of the other changes the refractive index at the surface.)

The target of test [6] is T1, human CD4 on 293T cells stably …. The test is described as follows: FACS on 293T cells expressing human CD4, MFI; table under the graph (unit from the graph's axis); Table 8 of the text gives this value to 2B6. How it is done:
as §1, §2

Test [7] deals with T2, extracellular domain of hCD4 fused with …. The test is described as follows: ELISA on human CD4, OD450; table under the graph (unit from the graph's axis); Table 7 of the text gives this value to 2B6. The protocol:
as §3, §4

Test [8] has as its target T1, human CD4 on 293T cells stably …. The test is described as follows: FACS on 293T cells expressing human CD4, MFI; table under the graph (unit from the graph's axis); Table 8 of the text gives this value to 29B7. The protocol:
as §1, §2

For test [9], the target named is T2, extracellular domain of hCD4 fused with …. The experiment in a line: ELISA on human CD4, OD450; table under the graph (unit from the graph's axis); Table 7 of the text gives this value to 29B7. The protocol:
as §3, §4

A word on the EC50: it is the concentration at which the effect is half-maximal. Low values mean a more potent agent, high ones a less potent agent. For orientation: Kd means the concentration at which binding is half-saturated. A high value points to a looser complex. The koff is the rate constant with which the complex falls apart. A higher koff goes with fast dissociation. One may read the kon as the rate constant with which the complex forms. A higher kon goes with fast association.

B1: 29B7 humanized anti-CD4 antibody (antibody, V domains shown)
VH: QVQLVQSGAEVKKPGASVKVSCKASGDSLNTHWMHWVRQAPGQRLEWIGYINPYTGSGEYSQKFKGRATLTADISASTAYMELSSLRSEDTAVYYCAYDSTGAMDYWGQGTLVTVSS
VL: DIQMTQSPSSLSASVGDRVTITCKASQDINRYLSWFQQKPGKAPKTPIYRADRSVDGVPSRFSGSGSGQDYTLTISSLQPEDFATYYCQQYDEFPYTFGQGTKLEIK
notes: Expressed as heavy and light chains in Freestyle 293 cells; The description says only that humanized antibodies may have human IgG1 and human kappa constant regions; also called Humanized 29B7
B1: the EC50 in test [1] was found to be 0.182 µg/mL; in test [2], 0.0056 µg/mL; in [3], 0.0116 µg/mL; in test [4], 0.183 µg/mL. Also, in test [5], the Kd was 444 pM. Besides, the koff in [5] is 0.000457 s⁻¹. For the same molecule, in test [5], the kon was 1.03e+06 M⁻¹ s⁻¹.

B2: MT412 humanized anti-CD4 antibody (antibody, V domains shown)
VH: QIQLVQSGSELKKPGASVKVSCKASGYTFTDYSMHWVRQAPGQGLEWMGWINTETGEPTYADDFKGRFVFSLDTSVSTAYLQISSLKAEDTAVYYCAREDYYGHDGFLYWGQGTLVTVSS
VL: DIQMTQSPSFLSASVGDRVTITCKASQDVVTTVAWYQQKPGKAPKLLIYWASLRHTGVPSRFSGSGSGTEFTLTISSLQPEDFATYFCQQYSSYPYTFGQGTKLEIKR
notes: Expressed as heavy and light chains in Freestyle 293 cells; The description says only that humanized antibodies may have human IgG1 and human kappa constant regions; also called Humanized MT412
As for B2, the EC50 was found to be 0.183 µg/mL in [1], 0.0116 µg/mL in [2], 0.211 µg/mL in [6] and 0.0116 µg/mL in [7]. In addition, binding in test [5] was characterised by a dissociation constant (Kd) of 1800 pM. The molecule further gave a koff in [5] of 0.00199 s⁻¹. For the same molecule, in [5], the kon came out at 1.11e+06 M⁻¹ s⁻¹.

B3: 2B6 humanized anti-CD4 antibody (antibody, V domains shown)
VH: QVQLQESGPGLVKPSETLSLTCTVSGDSITSGYWNWIRQPPGKGLEFLGYISFADTTNYNPSLKSRVTISRDTSKNQFSLKLSSVTAADTAVYYCARDDYGYYAMDYWGQGTLVTVSS
VL: DIQLTQSPSSLSASVGDRVTITCRASQDIDNYLNWYQQKPGKAPKLLIYYTSRLHSGVPSRFSGSGSGTDYTLTISSLQPEDFATYYCQQGNTLPTFGQGTKLEIK
notes: Expressed as heavy and light chains in Freestyle 293 cells; also called Humanized 2B6
Turning to B3, the EC50 turned out to be 0.211 µg/mL in test [1], 0.0116 µg/mL in test [2], 0.182 µg/mL in test [8] and 0.0056 µg/mL in test [9]. This molecule yielded a Kd in test [5] of 152 pM. Further, the koff in [5] was 7.89e-05 s⁻¹. Besides, the kon in test [5] came to 520000 M⁻¹ s⁻¹.

These data come from patent publication US11254745 (CROWN BIOSCIENCE, dated 2022).
